Target: Fzd2 pTyr552 peptide (phosphorylated 18-mer)
Assay: SPR

Kd: 2.1 nM
Substance: GST-FynSH2 (SH2 domain of Fyn) (from UniProt P06241 149-246) (domain or fragment)
